Experimental findings from US20170342349A1, “STABILIZED ENZYME COMPOSITIONS” (NOVOZYMES A/S, priority 2014, published 2017) are described below.

For experiment [1], the target named is Protease C (SEQ ID NO 6) variant L134V (Lederbergia lenta (Bacillus lentus)) (UniProt P29600). Description: Ki fitted from Suc-AAPF-pNA activity in Model B detergent; IF relative to SEQ ID NO 6.
The target of experiment [2] is Protease C (SEQ ID NO 6) variant N60F (Lederbergia lenta (Bacillus lentus)) (UniProt P29600). The description is as above.
Experiment [3] concerns the target Protease C (SEQ ID NO 6) variant N60H + S100I (Lederbergia lenta (Bacillus lentus)) (UniProt P29600). The experiment is described as above.
The target in experiment [4] is Protease C (SEQ ID NO 6) variant S100I (Lederbergia lenta (Bacillus lentus)) (UniProt P29600). Described as above.
Experiment [5] has as its target Protease C (SEQ ID NO 6) variant S100I + L134V (Lederbergia lenta (Bacillus lentus)) (UniProt P29600). The experiment is described as above.
In experiment [6] the target is TY145 (SEQ ID NO 3) variant I150A + S173P + S175P + F180Y. Description: Ki fitted from Suc-AAPF-pNA activity in Model B detergent; IF relative to SEQ ID NO 3 comprising S173P + S175P + F180Y.
Experiment [7] has as its target TY145 (SEQ ID NO 3) variant I150S + S173P + S175P + F180Y. Described as above.
Experiment [8] concerns the target TY145 (SEQ ID NO 3) variant I150T + S173P + S175P + F180Y. The description is as above.
The target of experiment [9] is TY145 (SEQ ID NO 3) variant K146F + S173P + S175P + F180Y. Described as above.
The target of experiment [10] is TY145 (SEQ ID NO 3) variant K146R + S173P + S175P + F180Y. The description is as above.
Experiment [11] has as its target TY145 (SEQ ID NO 3) variant K146T + S173P + S175P + F180Y. The description is as above.
The target in experiment [12] is TY145 (SEQ ID NO 3) variant Q70A + S173P + S175P + F180Y. The experiment is described as above.
The target of experiment [13] is TY145 (SEQ ID NO 3) variant Q70F + S173P + S175P + F180Y. Described as above.
TY145 (SEQ ID NO 3) variant Q70F + S173P + S175P + F180Y, sequence (chain, as listed by the source Q70F S173P S175P F180Y Q70F S173P S175P F180Y limits assumed): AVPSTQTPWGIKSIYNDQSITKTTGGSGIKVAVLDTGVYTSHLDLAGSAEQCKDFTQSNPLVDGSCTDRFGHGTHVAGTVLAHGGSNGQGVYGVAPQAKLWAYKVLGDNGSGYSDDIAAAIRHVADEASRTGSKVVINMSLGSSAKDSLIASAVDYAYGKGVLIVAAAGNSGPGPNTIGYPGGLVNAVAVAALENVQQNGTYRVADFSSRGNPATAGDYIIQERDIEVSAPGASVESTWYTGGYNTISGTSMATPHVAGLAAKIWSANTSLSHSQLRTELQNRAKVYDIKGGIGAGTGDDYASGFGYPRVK
The target of experiment [14] is TY145 (SEQ ID NO 3) variant S111I + S173P + S175P + F180Y. The description is as above.
In experiment [15] the target is TY145 (SEQ ID NO 3) variant S114Q + S173P + S175P + F180Y. The description is as above.
For experiment [16], the target named is TY145 (SEQ ID NO 3) variant S173P + S175P + F180Y + L184H. Described as above.
Experiment [17] deals with TY145 (SEQ ID NO 3) variant S173P + S175P + F180Y + L184Y. The description is as above.
Experiment [18] has as its target TY145 (SEQ ID NO 3) variant S173P + S175P + I178F + F180Y. The experiment is described as above.
For experiment [19], the target named is TY145 (SEQ ID NO 3) variant S173P + S175P + I178Y + F180Y. Described as above.
For experiment [20], the target named is TY145 (SEQ ID NO 3) variant S173P + S175P + F180Y + G182A. The experiment can be described thus: Ki fitted from Suc-AAPF-pNA activity in Model B detergent; IF relative to SEQ ID NO 3 comprising S173P + S175P + F180Y (second printed row for this variant).
Experiment [21] has as its target TY145 (SEQ ID NO 3) variant S173P + S175P + F180Y + L184F. Described as above.
Experiment [22] has as its target TY145 (SEQ ID NO 3) variant S173P + S175P + I178F + F180Y. The experiment is described as above.

TY145 (SEQ ID NO 3) variant I150T + S173P + S175P + F180Y, sequence (chain, as listed by the source I150T S173P S175P F180Y I150T S173P S175P F180Y limits assumed): as the sequence (chain, as listed by the source Q70F S173P S175P F180Y Q70F S173P S175P F180Y limits assumed) above, with F70Q, I150T counted along it

Consider “Inhibitor 1: Cbz-Gly-Ala-NHCH(CH2C6H4pOH)C(OH)(SO3Na)-H (peptide)”, for which the IF (binding constant improvement factor, relative Ki) turned out to be 2.89 in [1]; 3.25 in experiment [2]; 6.65 in [3]; 6.46 in experiment [4]; 15.1 in experiment [5]; 2.52 in experiment [6]. Moreover, the IF (binding constant improvement factor, relative Ki) in experiment [7] amounted to 5.7; in experiment [8] it was 4.15; in [9], 5.17; in experiment [10] it was 1.31; in experiment [11], 15.9; in [12], 4.13. Besides, the IF (binding constant improvement factor, relative Ki) in experiment [13] came out at 11.8; in experiment [14] it was 1.12; in experiment [15] it was 2.03; in experiment [16] it was 2.5; in experiment [17] it was 3.91; in experiment [18], 2.34. In addition, the IF (binding constant improvement factor, relative Ki) was 2.15 in [19], 2.01 in [20], 3.02 in experiment [21] and 1.83 in experiment [22].
